Experiments:
Assay in all cases: SDS-PAGE of lysate kept at 25°C versus heated to 95°C, with immunoblot
[1] = biological target: C-terminally 6xHis-tagged NoV GII.4 VP1 capsid protein expressed by rSA11/NSP3-2A-VP1His (human norovirus GII.4 MD145-12)
[2] = biological target: C-terminally 1xFLAG-tagged NoV GII.4 VP1 capsid protein expressed by rSA11/NSP3-2A-VP1f (human norovirus GII.4 MD145-12)
[3] = biological target: Rotavirus SA11 NSP3 linked to remnant residues of the 2A peptide (rotavirus SA11 | porcine teschovirus)
[4] = biological target: Rotavirus SA11 VP6 (rotavirus SA11)
[5] = biological target: Rotavirus SA11 NSP3 (wild type, from rSA11/wt) (rotavirus SA11)
[6] = biological target: N-terminally 3xFLAG-tagged NoV GII.4 VP1 capsid protein expressed by rSA11/NSP3-2A-fVP1 (human norovirus GII.4 MD145-12)

For “C-terminally 6xHis-tagged NoV GII.4 VP1 capsid protein expressed by rSA11/NSP3-2A-VP1His (natural protein)”, which stoichiometry N [1] is on record?
Its stoichiometry N is 2.

With “C-terminally 1xFLAG-tagged NoV GII.4 VP1 capsid protein expressed by rSA11/NSP3-2A-VP1f (natural protein)” as the substance, how does the stoichiometry N [2] read?
The stoichiometry N was 2.

For “Rotavirus SA11 NSP3 linked to remnant residues of the 2A peptide”, which stoichiometry N [3] is on record?
Its stoichiometry N is 2.

Which stoichiometry N [4] does the source give for Rotavirus SA11 VP6 (natural protein) here?
Its stoichiometry N is 3.

How did the stoichiometry N [5] turn out when “Rotavirus SA11 NSP3 (wild type, from rSA11/wt) (natural protein)” was run?
The stoichiometry N was 2.

“N-terminally 3xFLAG-tagged NoV GII.4 VP1 capsid protein expressed by rSA11/NSP3-2A-fVP1 (natural protein)” was tested. Which stoichiometry N [6] did it give?
Its stoichiometry N is 2.
